{"source": "paper doi:10.1101/2024.07.25.605195", "about": "(bioRxiv, 2024)", "proteins": {"B1": {"name": "mouse seipin, recombinant, purified from Expi293 cells co-expressing Adig (natural protein, UniProt Q9Z2E9 1-383, looked up)", "chain": "MVNDPPVPALLWAQEVGHVLAGRARRLMLQFGVLFCTILLLLWVSVFLYGSFYYSYMPTVSHLSPVHFHYRTDCDSSTASLCSFPVANVSLAKSGRDRVLMYGQPYRVTLELELPESPVNQDLGMFLVTVSCYTRGGRIISTSSRSVMLHYRSQLLQVLDTLLFSSLLLFGFAEQKQLLEVELYSDYRENSYVPTTGAIIEIHSKRIQMYGAYLRIHAHFTGLRYLLYNFPMTCAFVGVASNFTFLSVIVLFSYMQWVWGAVWPRHRFSLQVNIRQRDNSHHGAPRRISRHQPGQESTQQSDVTEDGESPEDPSGTEGQLSEEEKPEKRPLNGEEEQEPEASDGSWEDAALLTEANPPTSASASALAPETLGSLRQRPTCSSS"}}, "target": "the molecule itself", "assay": "cryo-EM structure", "note": "Where “and” joins values, the source holds several entries; their conditions need not be identical. Equal entries are not always repeated.", "data": [{"protein": "B1", "values": [{"measurement": "stoichiometry N", "value": "11 and 12"}]}]}
